The results in this text go back to the supplement of paper PMC12042874.

± gives the uncertainty stated by the source.

A short description of this data set: amyloid nucleation score (Sup35N fusion, yeast selection) (log enrichment); library NNK1; higher = more nucleation; inactive = no reads after selection. An outline of the steps:
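The nucleation score is the log enrichment of output over input reads, calculated with DiMSum and centred on the mode score of non-aggregating sequences. Sequences with under 100 input reads were excluded. Reads came from Illumina sequencing of plasmid inserts from psi-negative yeast expressing Sup35N fused to peptides of 20 random codons, induced 24 hours with 100 μM copper sulfate and grown 7 days at 30°C without adenine and uracil.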
With WSSYGCAAEMDALVCHGDAF, the amyloid nucleation score was found to be 1.47 ± 0.88.
Regarding IGMRCWTACSSKRFESCRRV, the amyloid nucleation score was found to be 0.743 ± 0.44.
Regarding RFNWSSDLCSFKTPLSKHVG, the amyloid nucleation score worked out at 0.258 ± 0.41.
CGDKNILTRIWLERVSVLAS registered an amyloid nucleation score of 0.056 ± 0.33.
Substance ITTIMTAVTVSPPQSMWFVS gave an amyloid nucleation score of 1.96 ± 0.25.
To LVVVGGKLNLTTWNAR belongs 0.829 ± 1.
LPFLS: the amyloid nucleation score was -0.116 ± 0.68.
Substance YSCFDRAPRFETSVESCDMS returned an amyloid nucleation score of 0.093 ± 0.87.
To FAIFKSTIPINSVVWPIIMH belongs 0.87 ± 0.3.
DQITYVPIMNQMMWATLLTF had an amyloid nucleation score of 0.849 ± 0.59.
With HPYSFWWSWAVKPLPGLRRI the figure was 0.485 ± 0.73; with LMLPMESAPKRLGEGVGPSR, 0.233 ± 0.47; with QYFKPGVASPSGDPVFKKKV, -0.404 ± 0.43.
To CFGFFVWANHAYHAQRCVAS belongs 1.29 ± 0.33; to LDVYCH, “inactive”; to DNRVLVPRRAFNDHIWCMYV, -0.23 ± 0.61.
Regarding LVLVWVAIHFDRLRIHRFFI, the amyloid nucleation score entry is “inactive”.
To GYMFPVFSMIGFLNTNVWSK belongs 3.27 ± 0.15.
On to ILVLRGCIKLR, for which the amyloid nucleation score entry was “inactive”.
With SILCIF the figure was 0.338 ± 1.2.
For AIFNLVSSL, the amyloid nucleation score is -0.792 ± 1.
As to MNFSYLWVYGNGL, the amyloid nucleation score is -0.629 ± 0.63.
With PWTYQHGQLASWVLGES the figure was -0.242 ± 0.33; with SASAISTPGGCYDGYLFDSQ, -0.457 ± 0.61.
With FWQIAGRGFGRYG the figure was -0.258 ± 0.45; with GTSRPVDWGLRRLS, 1.37 ± 0.62; with YGSKICSIAFCPLLHVQNHP, 6.567 ± 0.055.
To LCLKF belongs 0.77 ± 0.97; to YEVIHICTNLEPIVRNCMGG, 7.024 ± 0.066.
Regarding VMKELLMTHLLSCCLYSLCL, the amyloid nucleation score was 1.28 ± 0.34.
To NYLGS belongs -0.481 ± 0.33; to NFCVSVVFP, 1.84 ± 0.54.
Turning to VQFLLYSGFVQTILMPKASR, the amyloid nucleation score was 3.02 ± 0.15.
As to RTGSAASG, the amyloid nucleation score was -0.564 ± 0.38.
Substance ALWNLCCHLGDGTAADSTVY returned an amyloid nucleation score of -0.46 ± 1.9.
With MSMKQEEVDGSSW the figure was -0.553 ± 1.5; with LFADYILCTCAGCGTGAWEM, -0.092 ± 1.1; with DTPWWGSGALVFKLCACSAY, -0.341 ± 0.59.
The substance YMSWASLRKHFIFVV displayed an amyloid nucleation score of -0.282 ± 1.2.
With ALQTPFSKNMEYCCNQ the figure was 0.222 ± 0.41.
FTWERSH displayed an amyloid nucleation score of 0.655 ± 0.68.
Turning to NYETPGRFDKSVSTGEAFQS, the amyloid nucleation score is -0.868 ± 0.55.
The substance ILSFSSRPVVDNHSTTW showed an amyloid nucleation score of 0.682 ± 0.51.
The substance YHKRVNFSVRAGCCC showed an amyloid nucleation score of 1.29 ± 0.43.
The substance VLFGTCCRVILLWSV registered an amyloid nucleation score of 2.04 ± 0.43.
RIENNFLSTSFVFSCLIGNM displayed an amyloid nucleation score of 5.88 ± 0.07.
With SVTALKLDSSLQKSRDLVGG the figure was -0.233 ± 1.1.
As for GAYYGRSSKELGNNEGTGTG, the amyloid nucleation score was 0.51 ± 0.52.
To NIVSALRYITPYYLAAYPIT belongs 0.025 ± 0.36; to HVFIIQRMSWGVLRLLVSCR, -0.548 ± 0.52.
With SVLLEGFLSYPDLSTNLIHV the figure was -0.416 ± 0.81; with KEYNLLHDL, -0.691 ± 1.7; with YLINRRIYVPVYLLALVISL, -0.189 ± 0.4.
RNLTDQL gave an amyloid nucleation score of 2.99 ± 0.2.
With LSIFMTITAVESPWVTETVF the figure was -0.803 ± 0.4; with LYDLNIKWWRGASLVECECL, 0.139 ± 0.41; with LVVLL, -0.108 ± 0.71.
On to NGFGAYVYNSYLRFGNLSRA, for which the amyloid nucleation score result was “inactive”.
The substance HLAINNADTALGSYKGQVSV yielded an amyloid nucleation score of 2.36 ± 0.11.
The substance LFNLFSRL showed an amyloid nucleation score of 0.335 ± 0.51.
With PVLRAWYGRLFCRYSWLWQC the figure was 0.274 ± 0.46.
The substance GKSTCFSMKQECLAEREEEG yielded an amyloid nucleation score of 0.257 ± 0.81.
The substance SVLLKWMSYTKH yielded an amyloid nucleation score of 2.66 ± 0.15.
For SSGFTLTSVRMGEMSTANNG, the amyloid nucleation score was determined as 1.1 ± 0.66.
Regarding LMGDLYGSLRMCLVGSRWLL, the amyloid nucleation score worked out at 0.082 ± 1.2.
TVLIILRALLNSSPKTFD yielded an amyloid nucleation score of 0.387 ± 0.22.
With DLIYTDGLV the figure was -0.743 ± 0.24; with WDSLVLGKLYKLIFDQASPV, -1.31 ± 1.3; with TRSGYAHARSSAAQSFTL, 0.622 ± 0.33.
As to REEYYGIPSEINGHTTLVYS, the amyloid nucleation score is 1.03 ± 0.72.
DPAYEQGGLFEVGTIHCNIK gave an amyloid nucleation score of 0.527 ± 0.46.
QLIHMMFYIRFMWDLGHRSL came in with an amyloid nucleation score of 0.814 ± 0.36.
To INFCRSPMPWNGSALVNLMV belongs -0.014 ± 0.53.
RSARIKNWSSLYLWMINSCV displayed an amyloid nucleation score of 0.469 ± 0.32.
To TKLSPFNIGLRCRYHNLALN belongs -1.52 ± 0.45; to AFFYVVCFDVCKMSTMYLFG, -2.44 ± 2.4; to NSYKCIWMSLGVV, -0.897 ± 0.38.
On to ATRSSSFRMHDKNLCLTVDM, for which the amyloid nucleation score amounted to 0.855 ± 0.48.
With TNGWTQHKYKYRSFSGHFII the entry was “inactive”.
FFIDMCEL: the amyloid nucleation score is -0.897 ± 0.53.
LKSDMIADTTAL: the amyloid nucleation score is 2.67 ± 0.12.
To PHSSFPESSCKGSGSVSWAE belongs -0.172 ± 0.74.
On to NSRMMLGVLSSVAYGVRMVW, for which the amyloid nucleation score was 0.651 ± 0.56.
On to LDCYRLRCSLEAIECVISNE, for which the amyloid nucleation score is -0.479 ± 0.21.
With IKVAN the figure was 1.1 ± 0.47.
In turn, FHRNHRINNRMSMAYSC returned an amyloid nucleation score of 0.059 ± 0.9.
With YASGLILIKSPFV the figure was 0.276 ± 0.34; with LEITTHTSGIILMKGTPLRR, 3.14 ± 0.087.
As to SNSRPGSGYSLFERTRYRNE, the amyloid nucleation score was 0.345 ± 0.77.
Substance LICVGCSCYSLKLSYNSSGL returned an amyloid nucleation score of 5.79 ± 0.058.
YDGPLFVTFILI showed an amyloid nucleation score of 5.88 ± 0.077.
The substance VVGVYYSCIYVGAYNLGSIP came in with an amyloid nucleation score of 4.77 ± 0.1.
Turning to TVAGVR, the amyloid nucleation score turned out to be 0.174 ± 0.4.
In turn, GCNMII returned an amyloid nucleation score of -0.34 ± 0.38.
On to RPLVGTGIYSVVRSLFRLCV, for which the amyloid nucleation score is -1.16 ± 0.59.
In the case of YGINNLPI, the amyloid nucleation score was -1.23 ± 0.71.
In turn, NQMGRRQRVLRSSDSRPTVL had an amyloid nucleation score of -0.114 ± 0.74.
Take FAWEVKTDYRWYNPWLGRAC: the amyloid nucleation score was -0.838 ± 2.1.
For ATRDYVSGANDGIGPQMMWV, the amyloid nucleation score amounted to 0.324 ± 0.49.
To KLNVFDLVNRAKVGHCGSSG belongs 0.026 ± 0.51.
With SFILCGISRSYQMLLMTRYL the figure was 6.09 ± 0.068; with LCSLTGLGYAMHVYVSLDVQ, 0.086 ± 0.5.
Take TVDVPLAASSNKYKFMFYCE: the amyloid nucleation score is 3.92 ± 0.098.
In the case of GEDGG, the amyloid nucleation score came to 0.148 ± 0.52.
KYKVVI gave an amyloid nucleation score of -0.289 ± 0.24.
In turn, CNLSNVSLLFRYELLISGSY showed an amyloid nucleation score of 0.748 ± 0.35.
Substance GVSMNSFLICDFDIWQIKTR had an amyloid nucleation score of -0.162 ± 0.22.
With APMHINLWRDGTNVGQDWVV the figure was 1.88 ± 0.69.
With SHNEG the figure was 1.34 ± 0.41; with YINYHCFMIRFQFILVYRYQ, “inactive”.
With TFLSL the figure was 0.068 ± 0.24.
Turning to WANRVCMCLRTSFYHL, the amyloid nucleation score is 0.004 ± 0.62.
In turn, FRSFGVR came in with an amyloid nucleation score of 0.924 ± 0.97.
In turn, QWCNIVGSMIVDITQELML had an amyloid nucleation score of 1.75 ± 0.25.
As to WFFAAVWVLEFYEFR, the amyloid nucleation score is -0.432 ± 0.3.
In the case of HPSTRCAVANDNIWPLSGPR, the amyloid nucleation score is 0.628 ± 0.75.
As to NHIQRVSTFVLAMSYYVRTV, the amyloid nucleation score is -0.236 ± 1.2.
In turn, NKWSRSGKRCAKMGNSCSDE showed an amyloid nucleation score of 1.49 ± 0.69.
To YSIFREW belongs -0.817 ± 0.53; to SFSVSLTTYVYYFICHYAGI, 1.96 ± 0.13.
In turn, PGGSIRGFSRLSKLHWDRGE displayed an amyloid nucleation score of 0.252 ± 0.4.
On to VGRRNKVAWVKLRHEVRRCV, for which the amyloid nucleation score was 0.106 ± 0.52.
The substance KSQDKRYLSIPGCVLSFWGE gave an amyloid nucleation score of 0.069 ± 0.46.
To TRTKSGFSLYVRR belongs 1.1 ± 0.71; to GCSLWVGVLCKNCFFDDLIM, 5.807 ± 0.055; to SEPEKG, -0.463 ± 0.43.
In the case of APTRACSNGDMLREE, the amyloid nucleation score turned out to be 1.35 ± 0.51.
Take LNLGGSF: the amyloid nucleation score result was “inactive”.
Regarding KESLLLTQCGYYMGSAKMVW, the amyloid nucleation score is -1.03 ± 1.1.
To THHSTSVSGVDQW belongs 0.289 ± 0.52.
With LRIPFTSWRYDNEMAVTGSG the figure was 0.394 ± 0.84.
TWRLDIFGGRRGRVASRKKW came in with an amyloid nucleation score of -0.076 ± 0.96.
SFVWLR: the amyloid nucleation score worked out at 2.67 ± 0.37.
In the case of SPGMWGMGVDNSKSGRWALR, the amyloid nucleation score was found to be 1.89 ± 0.28.
To FAFTIFPCYYWDLNCLRFQH belongs 6.549 ± 0.047; to MVFRGFHKSQLGSFELAVGG, 0.428 ± 0.76; to FMSNIDLFTGFLRDMWFIIF, -0.312 ± 0.55.
As for FSEVSNWVFLNIYYVAFF, the amyloid nucleation score was 0.934 ± 0.25.
To WCLSG belongs -0.498 ± 0.48; to YGNIGV, 0.231 ± 0.81; to PFYNSQ, -0.371 ± 0.41.
With SEICLLVSSKSGHDAQSTIS the figure was -0.011 ± 1.2.
